Test results as given in the supplement of paper PMC7125110.
± gives the standard error. Variants at the floor of the assay were thinned out.

B1: glmS ribozyme (parent)
chain: AUAAAAGCGCCAGAACUACAGAAAUGUAGUUGACGAGGAGGAGGUUUAUCGAAUUUUCGGCGGAUGCCUCCAAA

Legend:
Settings in all cases: with glucosamine-6-phosphate
[1] = variants of: B1; test: self-cleavage kobs at 640 uM GlcN6P; higher = faster cleavage; RNA array
Method in brief: (§1)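 Barcoded ribozyme variants on sequenced MiSeq chips were transcribed in situ by E. coli RNA polymerase and followed at 37 °C through a hybridised Cy3 probe. Glucosamine-6-phosphate at 40 μM to 10 mM in HEPES/KCl/Mg(OAc)2 buffer was flowed in, and tiles were imaged over ~14 h. Signals were normalised to baseline and to non-cleaving reference variants, and per-tile medians were fit to one- or two-exponential decays to give kobs. Weighted Michaelis–Menten fits across concentrations gave kcat and KM.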

[2] = variants of: B1; test: self-cleavage kobs at 2500 uM GlcN6P; higher = faster cleavage; RNA array
Method in brief: as §1

[3] = variants of: B1; test: self-cleavage kobs at 10000 uM GlcN6P; higher = faster cleavage; RNA array
Method in brief: as §1

Variant | self-cleavage kobs at 640 uM GlcN6P [1] [s⁻¹] | self-cleavage kobs at 2500 uM GlcN6P [2] [s⁻¹] | self-cleavage kobs at 10000 uM GlcN6P [3] [s⁻¹]
AUAAAAACCCCAGAACUACAGAAAUGUAGUUGUCGAGGAGGAGGUUUAUCGAAUUUUCGGCGGAUCCCUCCAAA | < 1e-05 | < 1e-05 | 
AUAAAAGCGCCAGAGCUACAGAAAUGUAGUUGACGAGGAGGAGGUUUUUCGAAAUUUCGGCGGAUGCCUCCAAA | 0.000159 ± 3.2e-05 | 0.000106 ± 4.2e-05 | 
AUAAAAGCGCCAGAACUACAGAAAUGUAGUUGACGAGGAGGAGGUUUAUCGAAUUUUUGGCGGAUGUUUCUAAA | 0.000646 ± 0.00029 |  | 
AUAAAAGCGCCCGAACUACAGAAAUGUAAUUGACGAGGAGGAUGUUUAUCGAAUUUUCGGCGGAUGCCUCGAAA | < 1e-05 | < 1e-05 | 
AUAAAAGCGCUAGAACUACAGAAAUGUAGUUGACGAGGAGGAGGUUUAUCGAAUGUUCGGCGGAUGCCUACAAA | 8.31e-05 ± 3.3e-05 | 0.000101 ± 2.5e-05 | 
AUAAAAGCGCCAGAACUACAGAAAUGUAGGUGACGUGGAGGCGGUUUAUCGAAUUUUCGGCGGUUGGCUCCAAA | < 1e-05 | < 1e-05 | 
AUAAAAGCGCCAGAUCUACAGAAAUGUAGUUGGCGAGGAGGAGGUUUAUCGAAUUUUCGGCGGGUGACUAUAAA | 9.67e-05 ± 3.1e-05 |  | 
AUAAAAGCGCCAGAUCUACAGAAAUGUAGUUGACGAGGAGGAGGUUUAUCGAAUCUUCGGCGGAUGCCUUCAAA | 4.5e-05 ± 2.2e-05 | 9.45e-05 ± 3.3e-05 | 
AUAAAAGCGCCAGAACUACAGAAAUGUAGUUGACGAGGAGGAGGUUUAUCGAAUUUUCGGCUGAUGCCGCCAAA | 3.47e-05 ± 1.3e-05 | 0.000214 ± 8.3e-05 | 
AUAAAAGCGCCUGAACUACAGAAAUGUAGUUGCCGAGGAGUAGGUUUAUCGAAUUUUCGGCCGAUGCCUCCAAA | < 1e-05 | < 1e-05 | 
AUAAAAGCGCCAGGACUACAGAAAUGUAGUUCACGAGGAGGAGGAUUAUCGAAUUUUCGGCGGAUGCCUGCAAA | < 1e-05 |  | 
AUAAAAGCGCCACAACUACAGAAAUGUAGUUGACGAGGAGGAUGUUUAUCGAAUUUUGGGCGGAUGCCUCCAAA | < 1e-05 | < 1e-05 | < 1e-05
AUAAAAGCGCCAGAACUACAGAAAUGUAGUUGACGAGCAGGAGGCUUAUCGAAUUUUCGGCGGAUGCCUACAAA | < 1e-05 | < 1e-05 | 
AUAAAAGCGCCAGAACUACAGAAAUGUAGUUGACGAGUAGGACGUUUAUCGAUUUUUCGGCGGAUGCCUCCAAA | < 1e-05 | < 1e-05 | 
AUAAAAGCGCCAGAACUACAGAAAUGUAGUUGACGAGGAGGAUGUUCAUCGAAUUUUCGGCGGAUUCCUCCAAA | < 1e-05 |  | 
AUAAAAGCGCCAGACCUACAGAAAUGUACUUGACGAGGAGGAGGUUUAUCGAAUUUUCGUCGGAUGCCUCCAAA | < 1e-05 | < 1e-05 | < 1e-05
AUAAAAGCGCCAGAACUACAGAAAUGUAGUUGACGAGGAGGAGGUUUAUCGCAUUUCCGGCGGAUGCGUGCAAA | 0.000165 ± 5.4e-05 | 0.000133 ± 5.6e-05 | 
AUAAAAUCGCCAGAACUACAGAAAUGUAGUUGACGAGGAGGAGGAUUAUCGAGUUGUCGGCGGAUGCCUCCAAA | < 1e-05 |  | 
AUAAAAGGGCCAGCACUACAGAAAUGUAGUUGACGAGGAGGAGGUUUAUCGAAUUUUCGGCGAAUGCCUCCAAA | < 1e-05 | < 1e-05 | 
AUAAAAGCGCCGGAACUACAGAAAUGUAGUUGACGAGGAGGAGGUUUAUCGAAUUUUCGGCGGAUCCAUCCAAA | 6.5e-05 ± 2.5e-05 |  | 
AUAAAAGCGCCAGUACUACAGAAAUGUAGUUGACGAGGAGAAGGAUUAUCGAAUUUUCGGCGGAUGCCUCCAAA | 6.25e-05 ± 2.9e-05 | 0.000195 ± 5.4e-05 | 
AUAAAAGCGCCAGAACUACAGAAAUGUAGUUGAAGAGGAGGAGGUUUACCGAAUUUUAGGCGGAUGCCUCCAAA | < 1e-05 |  | 

Variant | self-cleavage kobs at 640 uM GlcN6P [1] [s⁻¹] | self-cleavage kobs at 2500 uM GlcN6P [2] [s⁻¹] | self-cleavage kobs at 10000 uM GlcN6P [3] [s⁻¹]
AUAAAAGCGCCAGAACUACAGAAAUGUAGUUGACUAGGAGGAGGUUUAUCGAAUUUGCGGCGGAUGCCUCAAAA | < 1e-05 | < 1e-05 | 
AUAAAAGCGCCAGAACUACAGAAAUGUAGUUGACGAGGAGGAGGAUUAUCGAAAUUUCGACGGAUCCCUCCAAA | < 1e-05 |  | 
AUAAAAGGGCCAGAACUACAGAAAUGUAGUUGACGAGGAGGAGGUUUAUCGAAUUUUCGGUGGAUGCUUCCAAA | < 1e-05 | < 1e-05 | 
AUAAAAGCGCCAAAACUACAGAAAUGUAGUUGACGAGGAGGAGGUUUAUUGAAUUUUCGGCAGAUGCCUCCAAA | < 1e-05 |  | 
AUAAACGCGCCAGAACUACAGAAAUGUAGUGGACGAGGAUGAAGUUUAUGGAAUUUUCGCCGGAUGCCUCCAAA | < 1e-05 |  | < 1e-05
AUAAAAGCGCUAGAACUACAGAAAUGUAGGCGACGAGGAGGAGGUUUAUCGAAUUUUCGGCGGAUGCCUCCAAA | 9.28e-05 ± 2.1e-05 |  | 
AUAAAAGCACCAGAACUACAGAAAUGUAGGUGACGAGGUGGAGGUUUAUCGAAUUUUCGGCGGAUGCCUCCAAA | < 1e-05 |  | 
AUAAAAGCGCCAGAACUACAGAAAUGUAGUUGACGAGGAGGAGGUUUAUCGGAUUUUAGGCGCAUGCGUCCAAA | 0.00011 ± 4.4e-05 | 0.000102 ± 2.9e-05 | 
AUAAAAGCGCCACAACUACAGAAAUGUACUUGACGAGGAGGAGUUUUAUAGAAUUUUCGGCCGAUGCCUCCAAA | < 1e-05 | < 1e-05 | < 1e-05
AUAAAAGCGCCAGAACUACAGAAAUGUAGUUGACGAGGAGGAGUUUCCUCGAAUUUUCGGCGGAUGCCGCCAAA | < 1e-05 | < 1e-05 | 
AUAAAAGCCCCAGAACUACAGAAAUGUAGUUGACGACGAGGAGGUUUAUCGAAUUUUCGGCGGAUGCCUGCAAA | < 1e-05 | < 1e-05 | 
AUAAAAGCGCCAGAACUACAGAAAUGUAGCUGAUGAGGAGGAGGUUUAUCGAAUUUACGGCGGAUGCCUCCAAA | < 1e-05 |  | 
AUAAAAGCGCCAUAACUACAGAAAUGUAGUUGACUAGGAGGAGGUUUAUUGAAUUUUCGGCGGAUCCCUCCAAA | < 1e-05 |  | 
AUAAAAGCGCCAGAACUACAGAAAUGUAGUUGAUGGGGAGGAGAUUUAUCGAAUUUUAGGCGGAUGCUUCCAAA | < 1e-05 | < 1e-05 | 
AUAAACGCGCCAGAACUACAGAAAUGUAGUUGACGAGGAGGAGAUUUAUCUAAUUUUCGGCGGAUGCCUCCAAA | < 1e-05 | < 1e-05 | 
AUAAAAGCGCCAGAACUACAGAAAUGUAGUUGACGAGGUGGAGGUAUAUCGAAUUUUCGGCGGAUGCCUCCAAA | 0.000305 ± 7.5e-05 | 0.000711 ± 0.00023 | 0.00219 ± 0.00035
AUAAAAGCGCCAGUUCUACAGAAAUGUACUUGACGAGGAGGAGGUUUAUCGAAUUUUCGGCGGAUGUCUGCAAA | 0.00266 ± 0.001 |  | 
AUAAAAGCGCCAUAACUACAGAAAUGUAAUUGUCGAGGAGGAGGUUUAUCGAAUUUUCGGCGGAUGCCUCCAAA | < 1e-05 |  | 
AUAAAAGCGCCAGAGCUACAGAAAUGUAGUUGACGAGGAGGAGGUUUAUCGAAAUUUCGGCGGAUCCCUCCAAA | 0.000369 ± 9e-05 | 0.000502 ± 9.7e-05 | 
AUAAAAGCGCUAGAACUACAGAAAUGUAGUUGACGAGGAGGCGGUUUAUCGAACUUUCAACGGAUGCCUCCAAA | < 1e-05 | < 1e-05 | 
AUAAAGGCACCAGAACUACAGAAAUGUAGUUGACGAGGCGGUGGUAUAUCGAUUUUUCGGCGGAUGCUUCGAAA | < 1e-05 |  | 
